Measurements taken from article doi:10.1101/2020.03.30.016881 (bioRxiv, 2020).
No end group written: not given here. TMR = tetramethylrhodamine (5,6-carboxy TMR) linked to N-terminus

Molecular target: E. coli DnaK (Hsp70), unlabelled (E. coli, UniProt P0A6Y8 1-638)
Assay: fluorescence polarisation

Chain of E. coli DnaK (Hsp70), unlabelled (P0A6Y8 whole entry): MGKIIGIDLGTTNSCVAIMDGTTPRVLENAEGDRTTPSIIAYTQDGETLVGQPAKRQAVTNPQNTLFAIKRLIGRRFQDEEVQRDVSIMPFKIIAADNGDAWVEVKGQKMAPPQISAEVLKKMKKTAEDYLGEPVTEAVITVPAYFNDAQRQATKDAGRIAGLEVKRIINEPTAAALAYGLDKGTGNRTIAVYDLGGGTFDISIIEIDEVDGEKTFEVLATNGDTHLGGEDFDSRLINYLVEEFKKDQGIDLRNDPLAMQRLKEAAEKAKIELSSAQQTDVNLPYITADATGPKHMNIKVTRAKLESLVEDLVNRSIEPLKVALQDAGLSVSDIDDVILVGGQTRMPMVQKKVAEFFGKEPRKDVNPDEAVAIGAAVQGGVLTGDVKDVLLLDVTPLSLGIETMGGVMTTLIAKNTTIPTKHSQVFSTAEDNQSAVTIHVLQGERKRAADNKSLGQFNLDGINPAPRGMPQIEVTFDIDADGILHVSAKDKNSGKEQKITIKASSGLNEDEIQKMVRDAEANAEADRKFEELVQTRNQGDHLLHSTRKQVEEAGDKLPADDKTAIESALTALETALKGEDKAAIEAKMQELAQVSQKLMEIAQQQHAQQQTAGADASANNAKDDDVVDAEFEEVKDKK

B1: TMR-IAPP (human IAPP labelled with tetramethylrhodamine at the N-terminus) (peptide)
peptide: {TMR}-KCNTATCATQRLANFLVHSSNNFGAILSSTNVGSNTY
modifications: ends and bridges not checked
  Kd: 2100 ± 900 nM
